The results in this text go back to paper PMC2929457 (Nature structural & molecular biology, 2010).

The target in this experiment is T1, His-SUMOSTAR-FANCD2(1-762) (Drosophila melanogaster) (Drosophila melanogaster, UniProt Q8MYL1 1-762).
T1 sequence (looked up): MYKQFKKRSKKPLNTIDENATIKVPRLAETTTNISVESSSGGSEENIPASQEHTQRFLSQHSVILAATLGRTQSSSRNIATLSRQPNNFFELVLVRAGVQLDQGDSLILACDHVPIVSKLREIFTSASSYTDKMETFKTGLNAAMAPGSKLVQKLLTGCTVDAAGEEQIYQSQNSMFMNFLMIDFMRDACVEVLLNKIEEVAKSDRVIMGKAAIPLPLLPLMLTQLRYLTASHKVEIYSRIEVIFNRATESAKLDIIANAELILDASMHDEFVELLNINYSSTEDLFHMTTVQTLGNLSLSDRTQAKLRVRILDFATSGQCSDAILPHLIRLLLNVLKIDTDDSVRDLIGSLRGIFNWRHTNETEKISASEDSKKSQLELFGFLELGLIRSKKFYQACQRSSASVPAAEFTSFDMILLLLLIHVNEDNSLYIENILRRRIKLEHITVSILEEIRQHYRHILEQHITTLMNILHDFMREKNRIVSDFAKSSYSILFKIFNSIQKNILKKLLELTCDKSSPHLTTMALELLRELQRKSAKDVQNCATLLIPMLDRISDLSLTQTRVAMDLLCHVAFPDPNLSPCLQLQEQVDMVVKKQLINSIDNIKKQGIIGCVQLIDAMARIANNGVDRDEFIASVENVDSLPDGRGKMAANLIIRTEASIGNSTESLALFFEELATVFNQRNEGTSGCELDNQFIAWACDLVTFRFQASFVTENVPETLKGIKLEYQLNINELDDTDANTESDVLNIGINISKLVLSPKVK
In words: pull-down.

B1: Drosophila melanogaster FANCL, full length (enzyme, UniProt Q8T913 1-381, looked up)
chain: MESNEDVERLLCQKYPGLAAELQPSGACIIRGVLGSEDTWRRLKLYLPHHPALHGFQLYVQESLEYKLYTSANLKLQDDWLLEDFLDHLPKILPAQKAPTVPKELCREGNIYYDILALYKSNEYCLQVDEACSMIRFSEFTDFEQHYLELKIPSLLLLDHSLPDCVSLGEMLTKSAGNLEEALNLFRKLLEDLRPFYDNFMDIDELCHVLQPSPISSKHKTRLFPLKDRVYLKLTIADPFACIASMSLKIIGPTEEVARLRHVLSDGLSNWDSEMNIHKNLLRMFDLCYFPMPDWSDGPKLDEEDNEELRCNICFAYRLDGGEVPLVSCDNAKCVLKCHAVCLEEWFKTLMDGKTFLEVSFGQCPFCKAKLSTSFAALLND
Turning to B1, the binding result is on record as “binds”.

B2: FANCL DRWD-RING (residues 105-381) (domain or fragment, Drosophila melanogaster, UniProt Q8T913 105-381, looked up)
chain: LCREGNIYYDILALYKSNEYCLQVDEACSMIRFSEFTDFEQHYLELKIPSLLLLDHSLPDCVSLGEMLTKSAGNLEEALNLFRKLLEDLRPFYDNFMDIDELCHVLQPSPISSKHKTRLFPLKDRVYLKLTIADPFACIASMSLKIIGPTEEVARLRHVLSDGLSNWDSEMNIHKNLLRMFDLCYFPMPDWSDGPKLDEEDNEELRCNICFAYRLDGGEVPLVSCDNAKCVLKCHAVCLEEWFKTLMDGKTFLEVSFGQCPFCKAKLSTSFAALLND
In the case of B2, the binding result is “binds”.
